Experimental data published in US20260217813A1 (published 2026).

Biological target: T1, IL-12 (Human IL12 (His Tag)), Sino Biological Cat. No. CT-050-H08H-20 (human, UniProt P29460 23-328; P29459 23-219)
T1 construct: Bought His-tagged p35/p40 heterodimer
T1 sequence (looked up) 1: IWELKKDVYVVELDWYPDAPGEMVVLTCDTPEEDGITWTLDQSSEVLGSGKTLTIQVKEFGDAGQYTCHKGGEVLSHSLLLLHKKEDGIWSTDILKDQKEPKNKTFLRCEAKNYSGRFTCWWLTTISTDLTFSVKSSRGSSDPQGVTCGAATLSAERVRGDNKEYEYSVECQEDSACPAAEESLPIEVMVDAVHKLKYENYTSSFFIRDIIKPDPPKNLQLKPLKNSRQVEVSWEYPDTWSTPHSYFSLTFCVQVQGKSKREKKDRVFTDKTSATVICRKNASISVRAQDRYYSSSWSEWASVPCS
T1 sequence (looked up) 2: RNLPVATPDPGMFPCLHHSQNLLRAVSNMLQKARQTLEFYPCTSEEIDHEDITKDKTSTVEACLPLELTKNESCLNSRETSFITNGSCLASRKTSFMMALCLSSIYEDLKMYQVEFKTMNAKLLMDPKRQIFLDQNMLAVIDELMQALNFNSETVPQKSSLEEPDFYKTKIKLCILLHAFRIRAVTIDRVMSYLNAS
Assay: FACS competition, IL12-His (40 nM mixed 1:1) on 293T-IL-12RB1&IL-23R cells
Procedure: 200 μL of 1% PBSA was added into each sample, and the mixture was centrifuged at 1200 rpm for 5 min to discard the supernatant. According to experiment design, correspondingly diluted antibody (highest final concentration of 60 μg/mL, 3-fold dilution, 8 concentrations in total) and IL12-His (Sino Biological, Cat. No.: CT-050-H08H-20) (40 nM) were mixed at a ratio of 1:1, and a blank control was set. The mixture of antibody and IL12 was incubated on ice for 30 min and then added to the cell precipitate at 100 μL/sample. The resulting mixture was well mixed and incubated on ice for 60 min. 200 μL of 1% PBSA was added, and the mixture was centrifuged at 1200 rpm for 5 min to discard the supernatant, and then washed twice. THETM His tag antibody (FITC) (Genscript, Cat. No.: A01620) was diluted at a ratio of 1:500 and added to each tube at 100 μL. The mixture was well mixed and incubated on ice for 40 min in the absence of light. 200 μL of 1% PBSA was added, and the mixture was centrifuged at 1200 rpm for 5 min to discard the supernatant, and then washed twice. 1% PBSA was added at 200 μL/tube, and the cells were resuspended and transferred to a flow cytometry tube for testing.

- EC50: 1.46 µg/mL
B1: H8L15 (antibody, human IgG1, kappa, V domains shown)
VH: EVQLVQSGAEVKKPGESLKISCQSSGYTFTSYWIGWVRQMPGQGLEWIGIMSPVDSDIRYNPMFRGQVTMSVDKSSSTAYLQWSSLKASDTAMYYCARRRPGQGYFDFWGQGTMVTVSS
VL: EIVLTQSPATLSASPGERATISCRASQSVGTWVAWYQQKPGQAPRSLIYAASNLQSGIPARFSGSGSGTDFTLTISSLEPEDFAVYYCQQYNIYPYTFGQGTRLEIKR
notes: IgG1 (P01857) / kappa (P01834) constant regions
